According to patent EP4428145A1, “ANTIBACTERIAL PEPTIDE” (Sumitomo Chemical Company, Limited, priority 2021, dated 2024):
Primed or numbered codes have the meaning given here. Where no end group is shown, it is not given here. [ ]: non-standard residue; d: D form. Dhb′ = not defined here; Dha = C=C(N)C(=O)O

Assays:
Assay type in all cases: cell-based, Lactobacillus sakei
L. sakei [1] = experiment: Wide pH-range stability test, antimicrobial activity after pH treatment, spot-on-lawn (Experiment 6); design: key to Antimicrobial activity after pH treatment / Antimicrobial activity, Untreated: -: Without antimicrobial activity; +: With antimicrobial activity; ++: With strong antimicrobial activity; +++: With very strong antimicrobial activity; conditions: for Antimicrobial activity after pH treatment: 30°C
Procedure: (§1) Like in Experiment 1A, antimicrobial activity of the antimicrobial peptide was evaluated by a spot-on-lawn method. As the test bacteria, Lactobacillus sakei (NBRC15893) was used. After overnight culturing, the test bacteria were mixed and diluted with Lactobacilli AOAC agar so as to achieve a density of 4×10^7 CFU/mL, and the resultant was spread over an MRS plate containing 2% agar. The test liquid was spotted on the test bacteria, and incubated overnight at 30°C. The size of the growth inhibition circle of L. sakei was evaluated as the antimicrobial activity.
Each peptide was redissolved and prepared in the following buffer; Sodium acetate-acetic acid (50 mM, pH4.0), Sodium phosphate (50 mM, pH7.4), glycine-NaOH (50 mM, pH10.0). The test solution thus prepared at the above-specified pH was incubated at 30°C. The duration of the incubation was 0 hours, 0.5 hours, 2 hours, 4 hours, 6 hours, and 24 hours, and at the completion of the incubation, TFA was added in a final concentration of 0.2%. […] By the same spot-on-lawn method as adopted in the above-mentioned antimicrobial activity test, the polypeptide was added in drops to form a growth inhibition circle of L. sakei, and thereby the antimicrobial activity of the polypeptide after pH treatment was evaluated. As a positive control (PC), culture supernatant of a nisin A-producing lactic acid bacterium (Lactococcus lactis ATCC-11454 strain) was used. A sample that was prepared solely with a 0.2% TFA aqueous solution was used as an untreated control.
(§2) Nisin A used in Examples was Nisin from Lactococcus lactis 2.5% (manufactured by Sigma-Aldrich corporation) that was used after concentration and purification. The details of nisin A are as described by J. C. Slootweg et al., J. Pept. Sci., 19, 692-699(2013). To 1 g of commercially available 2.5% nisin A (containing about 25 mg of nisin A), 25 mL of water was added, and the resultant was stirred for 15 minutes at room temperature. Centrifugation (15 minutes, 2500 rpm) was carried out to separate off the precipitate, and only the supernatant was transferred to another tube. To the resulting solution, 20 mL of dichloromethane was added. To collect the white precipitate that was present between the aqueous layer and the organic layer, the upper layer and the lower layer were removed. Another round of centrifugation (15 minutes, 2500 rpm) was carried out to remove, again, the upper layer and the lower layer. The intermediate layer that was sought after was dried in a reduced-pressure centrifuge and re-dissolved in 7.45 mL of water, and thereby a 1-mM purified Nisin product was obtained. The resulting purified product was used as nisin A in each stability test.

L. sakei [2] = experiment: Oxidation stability test, antimicrobial activity after hydrogen peroxide treatment, spot-on-lawn (Experiment 8); design: key to Antimicrobial activity, Before oxidation treatment / Antimicrobial activity, After oxidation treatment: -: Without antimicrobial activity; +: With antimicrobial activity; ++: With strong antimicrobial activity; +++: With very strong antimicrobial activity; conditions: for Antimicrobial activity, After oxidation treatment: 1-mM solution treated with 10 mM hydrogen peroxide at 40°C for 6 hours
Procedure: as §1, §2
The method of oxidation treatment is as described by Toshihiro T. et al., J. Proteome Res., 12, 753-762(2013). To a 1-mM solution of lactobacin A or nisin A, hydrogen peroxide was added to achieve a final concentration of 10 mM, followed by reaction at 40°C for 6 hours. After the completion of reaction, the reaction liquid was diluted with water to achieve a polypeptide concentration of 10 µM or 1 µM. By the same spot-on-lawn method as adopted in the above-mentioned antimicrobial activity test, the polypeptide was added in drops to form a growth inhibition circle of L. sakei, and thereby the antimicrobial activity of the polypeptide after oxidation treatment was evaluated. Development of the oxidation reaction was calculated as a relative value of the peak area obtained by LC/MS measurement of the oxidation-treated test solution relative to the non- oxidation-treated test solution. As a positive control (PC), culture supernatant of a nisin A-producing lactic acid bacterium (Lactococcus lactis ATCC-11454 strain) was used.

L. sakei [3] = experiment: Thermal stability test, antimicrobial activity after heat treatment, spot-on-lawn (Experiment 7); design: key to Antimicrobial activity after heat treatment / Antimicrobial activity, Untreated: -: Without antimicrobial activity; +: With antimicrobial activity; ++: With strong antimicrobial activity; +++: With very strong antimicrobial activity; conditions: for thermal stability of antimicrobial activity: result in words
Procedure: as §1, §2
The test solution was subjected to heat treatment at 80°C for 10 minutes, or at 80°C for 30 minutes, or at 100°C for 10 minutes, or at 100°C for 30 minutes, or at 121°C for 15 minutes. By the same spot-on-lawn method as adopted in the above-mentioned antimicrobial activity test, the polypeptide was added in drops to form a growth inhibition circle of L. sakei, and thereby the antimicrobial activity of the polypeptide after heat treatment was evaluated. As a positive control (PC), culture supernatant of a nisin A-producing lactic acid bacterium (Lactococcus lactis ATCC-1 1454 strain) was used. A sample without the heat process was used as an untreated control.

nisin A (I[Dhb′]SI[Dha]LCTPGCKTGALMGCNMKTATCHCSIHV[Dha]K; thioether (positions not given here); not fully specified (some residues, bridges); also: lanthionine thioether crosslinks and dehydro residues, not placed; UniProt P13068 24-57, looked up) [Nisin from Lactococcus lactis 2.5% (Sigma-Aldrich) used after concentration and purification; known antimicrobial peptide]
Antimicrobial activity after pH treatment (L. sakei [1]; 10 µM, pH 4.0, 0 hr): ++
Antimicrobial activity after pH treatment (L. sakei [1]; 10 µM, pH 4.0, 0.5 hr): ++
Antimicrobial activity after pH treatment (L. sakei [1]; 10 µM, pH 4.0, 2 hr): ++
Antimicrobial activity after pH treatment (L. sakei [1]; 10 µM, pH 4.0, 4 hr): +
Antimicrobial activity after pH treatment (L. sakei [1]; 10 µM, pH 4.0, 6 hr): +
Antimicrobial activity after pH treatment (L. sakei [1]; 10 µM, pH 4.0, 24 hr): +
Antimicrobial activity after pH treatment (L. sakei [1]; 10 µM, pH 7.4, 0 hr): -
Antimicrobial activity after pH treatment (L. sakei [1]; 10 µM, pH 7.4, 0.5 hr): -
Antimicrobial activity after pH treatment (L. sakei [1]; 10 µM, pH 7.4, 2 hr): -
Antimicrobial activity after pH treatment (L. sakei [1]; 10 µM, pH 7.4, 4 hr): -
Antimicrobial activity after pH treatment (L. sakei [1]; 10 µM, pH 7.4, 6 hr): -
Antimicrobial activity after pH treatment (L. sakei [1]; 10 µM, pH 7.4, 24 hr): -
Antimicrobial activity after pH treatment (L. sakei [1]; 10 µM, pH 10.0, 0 hr): -
Antimicrobial activity after pH treatment (L. sakei [1]; 10 µM, pH 10.0, 0.5 hr): +
Antimicrobial activity after pH treatment (L. sakei [1]; 10 µM, pH 10.0, 2 hr): -
Antimicrobial activity after pH treatment (L. sakei [1]; 10 µM, pH 10.0, 4 hr): -
Antimicrobial activity after pH treatment (L. sakei [1]; 10 µM, pH 10.0, 6 hr): -
Antimicrobial activity after pH treatment (L. sakei [1]; 10 µM, pH 10.0, 24 hr): -
Antimicrobial activity, Untreated (L. sakei [1]; 10 µM, untreated control prepared solely with 0.2% TFA aqueous solution): ++
pH stability of antimicrobial activity (L. sakei [1]; result in words, neutral range and alkaline range): lost its antimicrobial activity
Antimicrobial activity, Before oxidation treatment (L. sakei [2]; 1 µM): +
Antimicrobial activity, Before oxidation treatment (L. sakei [2]; 10 µM): ++
Antimicrobial activity, After oxidation treatment (L. sakei [2]; diluted to 1 µM): -
Antimicrobial activity, After oxidation treatment (L. sakei [2]; diluted to 10 µM): -
oxidation stability of antimicrobial activity (L. sakei [2]; result in words, after oxidation treatment with 10-mM hydrogen peroxide): lost its antimicrobial activity
Antimicrobial activity after heat treatment (L. sakei [3]; 10 µM, 80°C 10 mm): +
Antimicrobial activity after heat treatment (L. sakei [3]; 10 µM, 80°C 30 min): -
Antimicrobial activity after heat treatment (L. sakei [3]; 10 µM, 100°C 10 min): -
Antimicrobial activity after heat treatment (L. sakei [3]; 10 µM, 100°C 30 min): -
Antimicrobial activity after heat treatment (L. sakei [3]; 10 µM, 121°C 15 min): -
Antimicrobial activity, Untreated (L. sakei [3]; 10 µM, sample without the heat process): ++
thermal stability of antimicrobial activity (L. sakei [3]; any heat treatment beyond 80°C for 10 minutes): lost its antimicrobial activity
thermal stability of antimicrobial activity (L. sakei [3]; heat treatment at 80°C for 10 minutes): retained its activity
